Drawing on PMC3961674, “Novel Ubiquitin-derived High Affinity Binding Proteins with Tumor Targeting Properties*” (The Journal of Biological Chemistry, 2014), this text covers Kd for 1 molecule.

The experiment concerns the target 77405-MSA (77405 fused to mouse serum albumin) (human | mouse, UniProt P0CG48 1-76; P0CG48 1-76, Gln-2 to Arg | Phe-4 to Trp | Lys-6 to His | Gln-62 to Asn | Lys-63 to Pro | …). Put plainly: ELISA; 67B89 target or 6789 off-target coated on Medisorp 96-well plates; variant in serial dilutions, 1 h; detection with anti-Ubi-Fab-POD; apparent KD by hyperbolic fit. Conditions: both partners purified.

B1: 67B89 (ED-B domain of fibronectin flanked by its N-terminal domains 6 and 7 and C-terminal domains 8 and 9) (domain or fragment)
chain: not shown
notes: fibronectin, UniProt P02751 isoform 7, residues 1080-1541 (domains 6, 7, ED-B, 8, 9); numbers count on: isoform 7; tag-free, from pET28a; gene synthesis; also called 67B89 target; ED-B target; source: E. coli HMS174 (DE3), purified (Q-Sepharose FF, ammonium sulfate precipitation, Phenyl HP, Q Sepharose HP)
Consider B1, for which the Kd was found to be 0.58 nM.
